Tested on: target antigen-expressing cell line
Experiment: Jurkat NFAT-GFP assay, coculture with target cell lines expressing the respective target antigen (summary Table 10A)
Format: cell-based, human
Set-up: key: The signs +/−, +, 2+ etc. after the name of the cell lines indicate the relative degree of positivity on the Jurkat-NFAT-GFP assay as measured by the % GFP positive cells; +: relative degree of positivity on the Jurkat-NFAT-GFP assay as measured by the % GFP positive cells; 2+: relative degree of positivity on the Jurkat-NFAT-GFP assay as measured by the % GFP positive cells
Method in brief: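 Jurkat cells carrying an NFAT-driven GFP reporter and lentivirally expressing a SIR were cocultured with antigen-bearing target cells (E:T ~1:2) for about 4–18 h. GFP induction read by flow cytometry as % GFP+ cells, scored positive and graded (+/−, +, 2+) against parental Jurkat-NFAT-GFP cells.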

Molecule | NFAT-GFP ASSAY Positive Cell lines (coculture with HEL cells) | NFAT-GFP ASSAY Positive Cell lines (coculture with NALM6 cells) | NFAT-GFP ASSAY Positive Cell lines (coculture with RAJI cells)
101817-B02 (protein) MALPVTALLLPLALLLHAARPEIVLTQSPATLSLSPGERATLSCSASSSVSYMYWYQQKPGQAPRLLIYRTSNLASGIPARFSGSGSGTDFTLTISSLEPEDFAVYYCQQYHSYPTTFGQGTKVEIKRTVLEIQNPDPAVYQLRDSKSSDKSVCLFTDFDSQTNVSQSKDSDVYITDKCVLDMRSMDFKSNSAVAWSNKSDFACANAFNNSIIPEDTFFPSSDVPCDVKLVEKSFETDTNLNFQNLSVIGFRILLLKVAGFNLLMTLRLWSSRAKRSGSGVKQTLNFDLLKLAGDVESNPGPTSMDWIWRILFLVGAATGAHSFEEVQLVESGGGLVQPGGSLRLSCAASGFSFNTYAMNWVRQAPGKGLEWVSHIRSKSNNFATYYADSVKDRFTISRDNAKNSLYLQMNSLRAEDTAVYYCARQGGDFPMDYWGQGTLVTVSSTREDLKNVFPPEVAVFEPSKAEIAHTQKATLVCLATGFYPDHVELSWWVNGKEVHSGVCTDPQPLKEQPALNDSRYCLSSRLRVSATFWQNPRNHFRCQVQFYGLSENDEWTQDRAKPVTQIVSAEAWGRADCGITSASYHQGVLSATILYEILLGKATLYAVLVSALVLMAMVKRKDSRGRAKRSGSGATNFSLLKQAGDVEENPGPSRGHMTEYKPTVRLATRDDVPRAVRTLAAAFADYPATRHTVDPDRHIERVTELQELFLTRVGLDIGKVWVADDGAAVAVWTTPESVEAGAVFAEIGPRMAELSGSRLAAQQQMEGLLAPHRPKEPAWFLATVGVSPDHQGKGLGSAVVLPGVEAAERAGVPAFLETSAPRNLPFYERLGFTVTADVEVPEGPRTWCMTRKPGA | HEL (+) | – | –
092216-B03 (protein, Synthetic Immune Receptor (SIR)) MALPVTALLLPLALLLHAARPLEGKPIPNPLLGLDSTGSGEDLKNVFPPEVAVFEPSKAEIAHTQKATLVCLATGFYPDHVELSWWVNGKEVHSGVCTDPQPLKEQPALNDSRYCLSSRLRVSATFWQNPRNHFRCQVQFYGLSENDEWTQDRAKPVTQIVSAEAWGRADCGITSASYHQGVLSATILYEILLGKATLYAVLVSALVLMAMVKRKDSRGRAKRSGSGATNFSLLKQAGDVEENPGPTSMALPVTALLLPLALLLHAARPDQIVLTQSPAIMSASPGEKVTISCSASSSVSYMYWYQQKPGSSPKPWIYRTSNLASGVPARFSGSGSGTSYSLTISNMEAEDAAAYYCQQYHSYPTTFGGGTKLEVKGGGGSGGGGSGGGGSEVQLVESGGGLVQPKGSLKLSCAASGFSFNTYAMNWVRQAPGKGLEWIAHIRSKSNNFATYYADSVKDRFSISRDASENILFLQMNNLKTEDTAMYYCVRQGGDFPMDYWGQGTSVTVSSTREQKLISEEDGSGIQNPDPAVYQLRDSKSSDKSVCLFTDFDSQTNVSQSKDSDVYITDKCVLDMRSMDFKSNSAVAWSNKSDFACANAFNNSIIPEDTFFPSSDVPCDVKLVEKSFETDTNLNFQNLSVIGFRILLLKVAGFNLLMTLRLWSSRAKRSGSGVKQTLNFDLLKLAGDVESNPGPSRGHMTEYKPTVRLATRDDVPRAVRTLAAAFADYPATRHTVDPDRHIERVTELQELFLTRVGLDIGKVWVADDGAAVAVWTTPESVEAGAVFAEIGPRMAELSGSRLAAQQQMEGLLAPHRPKEPAWFLATVGVSPDHQGKGLGSAVVLPGVEAAERAGVPAFLETSAPRNLPFYERLGFTVTADVEVPEGPRTWCMTRKPGA | HEL (+) | – | –
091316-A01 (protein, Synthetic Immune Receptor (SIR)) MALPVTALLLPLALLLHAARPLEGKPIPNPLLGLDSTGSGEDLKNVFPPEVAVFEPSKAEIAHTQKATLVCLATGFYPDHVELSWWVNGKEVHSGVCTDPQPLKEQPALNDSRYCLSSRLRVSATFWQNPRNHFRCQVQFYGLSENDEWTQDRAKPVTQIVSAEAWGRADCGITSASYHQGVLSATILYEILLGKATLYAVLVSALVLMAMVKRKDSRGRAKRSGSGATNFSLLKQAGDVEENPGPTSMALPVTALLLPLALLLHAARPDIVMTQAAPSIPVTPGESVSISCRSDKSLLHSNGNTYLFWFLQRPGQSPQLLIYRMSNLASGVPDRFSGSGSGTAFTLRISGVEAEDVGVYYCMQHLEYPYTFGGGTKLEIKGGGGSGGGGSGGGGSQVQLQQSGPELVKPGASVKMSCKASGYAFSSSWLNWVRQRPGKGLEWIGRIYPGDGENHYNGKFKGKATLTADKSSSTGYMQLSSLTSEDSAVYFCASYYEGGYWGQGTLITVSATREQKLISEEDGSGIQNPDPAVYQLRDSKSSDKSVCLFTDFDSQTNVSQSKDSDVYITDKCVLDMRSMDFKSNSAVAWSNKSDFACANAFNNSIIPEDTFFPSSDVPCDVKLVEKSFETDTNLNFQNLSVIGFRILLLKVAGFNLLMTLRLWSSRAKRSGSGVKQTLNFDLLKLAGDVESNPGPSRGHMTEYKPTVRLATRDDVPRAVRTLAAAFADYPATRHTVDPDRHIERVTELQELFLTRVGLDIGKVWVADDGAAVAVWTTPESVEAGAVFAEIGPRMAELSGSRLAAQQQMEGLLAPHRPKEPAWFLATVGVSPDHQGKGLGSAVVLPGVEAAERAGVPAFLETSAPRNLPFYERLGFTVTADVEVPEGPRTWCMTRKPGA | HEL (+/−) | – | –
010417-U02 (protein) MALPVTALLLPLALLLHAARPLEGKPIPNPLLGLDSTGSGEDLKNVFPPEVAVFEPSKAEIAHTQKATLVCLATGFYPDHVELSWWVNGKEVHSGVCTDPQPLKEQPALNDSRYCLSSRLRVSATFWQNPRNHFRCQVQFYGLSENDEWTQDRAKPVTQIVSAEAWGRADCGITSASYHQGVLSATILYEILLGKATLYAVLVSALVLMAMVKRKDSRGRAKRSGSGATNFSLLKQAGDVEENPGPTSMALPVTALLLPLALLLHAARPDQIVLTQSPAIMSASPGEKVTISCSASSSVSYMYWYQQKPGSSPKPWIYRTSNLASGVPARFSGSGSGTSYSLTISNMEAEDAAAYYCQQYHSYPTTFGGGTKLEVKGGGGSGGGGSGGGGSEVQLVESGGGLVQPKGSLKLSCAASGFSFNTYAMNWVRQAPGKGLEWIAHIRSKSNNFATYYADSVKDRFSISRDASENILFLQMNNLKTEDTAMYYCVRQGGDFPMDYWGQGTSVTVSSTREAAAKEIVLTQSPATLSLSPGERATLSCSASSSVSYMHWYQQKPGQAPRLLIYDTSKLASGIPARFSGSGSGTDFTLTISSLEPEDVAVYYCFQGSVYPFTFGQGTKLEIKRGGGGSGGGGSGGGGSQVQLQESGPGLVKPSQTLSLTCTVSGGSISTSGMGVGWIRQHPGKGLEWIGHIWWDDDKRYNPALKSRVTISVDTSKNQFSLKLSSVTAADTAVYYCARMELWSYYFDYWGQGTLVTVSSTREQKLISEEDGSGIQNPDPAVYQLRDSKSSDKSVCLFTDFDSQTNVSQSKDSDVYITDKCVLDMRSMDFKSNSAVAWSNKSDFACANAFNNSIIPEDTFFPSSDVPCDVKLVEKSFETDTNLNFQNLSVIGFRILLLKVAGFNLLMTLRLWSSRAKRSGSGVKQTLNFDLLKLAGDVESNPGPSRGHMTEYKPTVRLATRDDVPRAVRTLAAAFADYPATRHTVDPDRHIERVTELQELFLTRVGLDIGKVWVADDGAAVAVWTTPESVEAGAVFAEIGPRMAELSGSRLAAQQQMEGLLAPHRPKEPAWFLATVGVSPDHQGKGLGSAVVLPGVEAAERAGVPAFLETSAPRNLPFYERLGFTVTADVEVPEGPRTWCMTRKPGA | +/− | + | RAJI (+), NALM6
092517-H02 (protein) MALPVTALLLPLALLLHAARPLEGKPIPNPLLGLDSTGSGEDLKNVFPPEVAVFEPSKAEIAHTQKATLVCLATGFYPDHVELSWWVNGKEVHSGVCTDPQPLKEQPALNDSRYCLSSRLRVSATFWQNPRNHFRCQVQFYGLSENDEWTQDRAKPVTQIVSAEAWGRADCGITSASYHQGVLSATILYEILLGKATLYAVLVSALVLMAMVKRKDSRGRAKRSGSGATNFSLLKQAGDVEENPGPTSMALPVTALLLPLALLLHAARPDVVMTQSPSSLSASVGDRVTITCKASEDIYIRLAWYQQKPGKAPKLLIYAATSLETGVPSRFSGSGSGTDFTLTISSLQPEDFATYYCQQYWTTPWTFGGGTKVEIKGGGGSGGGGSGGGGSQVQLQESGPGLVKPSQTLSLTCTVSGYSITIDYTWNWIRQPPGKGLEWIGYITYSGSTDYNPSLKSRVLISVDTSKNQVSLKLSSVTAADTAVYYCARLGRRYALDYWGQGTTVTVSSTREQKLISEEDGSGIQNPDPAVYQLRDSKSSDKSVCLFTDFDSQTNVSQSKDSDVYITDKCVLDMRSMDFKSNSAVAWSNKSDFACANAFNNSIIPEDTFFPSSDVPCDVKLVEKSFETDTNLNFQNLSVIGFRILLLKVAGFNLLMTLRLWSSRAKRSGSGVKQTLNFDLLKLAGDVESNPGPSRGHMTEYKPTVRLATRDDVPRAVRTLAAAFADYPATRHTVDPDRHIERVTELQELFLTRVGLDIGKVWVADDGAAVAVWTTPESVEAGAVFAEIGPRMAELSGSRLAAQQQMEGLLAPHRPKEPAWFLATVGVSPDHQGKGLGSAVVLPGVEAAERAGVPAFLETSAPRNLPFYERLGFTVTADVEVPEGPRTWCMTRKPGA | HEL(+) | – | –

Reference: patent US12269859B2, “Synthetic immune receptors and methods of use thereof” (Angeles Therapeutics, Inc., priority 2016, dated 2025)
